Data set [1] relates to Suc-βAla-Leu-Ala-Leu-Dox.
In data set [2] the test system is T1, Suc-βAla-Leu-Tyr-Leu-Dox.
T1 sequence: XLYL

The test system of data set [3] is Mcc-Pro-Leu-Gly-Pro-D-Lys(DNP).
The test system of data set [4] is Suc-Leu-Ala-Leu-Dox.
The test system of data set [5] is Suc-Leu-Ala-Gly-Dox.
In data set [6] the test system is Suc-βAla-Ile-Ala-Leu-Dox.
Data set [7] has as its system Suc-Met-Ala-Leu-Dox.
Data set [8] has as its system Suc-Ile-NmAla-Leu-Dox.
In data set [9] the test system is Suc-Ala-Leu-Ala-Leu-Dnr.
The test system of data set [10] is Suc-Ile-Ala-Leu-Dox.
For data set [11], the system named is Suc-Leu-NmAla-Leu-Dox.

partially purified HeLa cell trouase (HeLa cell anion exchange fraction pool, F1), sequence (chain, as listed by the source): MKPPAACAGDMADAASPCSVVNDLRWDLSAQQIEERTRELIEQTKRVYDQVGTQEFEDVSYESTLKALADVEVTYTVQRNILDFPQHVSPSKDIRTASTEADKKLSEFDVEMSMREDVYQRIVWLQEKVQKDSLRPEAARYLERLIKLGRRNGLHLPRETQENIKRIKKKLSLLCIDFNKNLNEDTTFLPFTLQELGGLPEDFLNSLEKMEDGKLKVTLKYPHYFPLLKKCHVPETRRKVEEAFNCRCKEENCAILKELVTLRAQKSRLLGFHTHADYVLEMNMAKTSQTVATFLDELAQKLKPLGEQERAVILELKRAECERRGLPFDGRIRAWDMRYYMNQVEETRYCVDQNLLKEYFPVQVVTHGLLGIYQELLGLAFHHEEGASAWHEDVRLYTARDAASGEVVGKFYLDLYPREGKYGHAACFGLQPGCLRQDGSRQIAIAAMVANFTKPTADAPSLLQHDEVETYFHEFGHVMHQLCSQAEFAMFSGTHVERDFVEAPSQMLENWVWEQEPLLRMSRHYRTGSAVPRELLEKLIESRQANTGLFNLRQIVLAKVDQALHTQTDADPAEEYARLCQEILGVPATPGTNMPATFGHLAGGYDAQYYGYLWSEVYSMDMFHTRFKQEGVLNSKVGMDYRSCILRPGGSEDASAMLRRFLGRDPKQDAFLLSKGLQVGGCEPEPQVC

In [1], purified Porcine Kidney CD10 yielded a % hydrolysis/10 hr (% hydrolysis/10 hr) of 10.9 and a Fraction hydrolyzed relative to standard of 1. Also, in data set [2], the % hydrolysis/10 hr (% hydrolysis/10 hr) turned out to be 0 and the Fraction hydrolyzed relative to standard was determined as 0.
Turning to “partially purified HeLa cell trouase (HeLa cell anion exchange fraction pool, F1)”, the rate of hydrolysis (Table 1, (F1)) in data set [3] is 1.5; in [4] it was 0.78; in data set [5], 0.4; in data set [6] it was 0.025; in data set [1], 1; in [7] it was 0.49. The rate of hydrolysis (Table 1, (F1)) in data set [8], in data set [10] and in data set [11] was 0 throughout. In addition, in [9], the “extent of cleavage (HPLC), fold of that of Suc-βAla-Leu-Ala-Leu-Dnr” value is reported as “only 0.6 fold that of the P2 β-alanine compound”.

Values taken from patent publication US20020142955.
